The values that follow come from patent US20260207718.

The target in the series is cation-independent mannose-6-phosphate receptor (CIMPR) on fibroblast cells (UniProt P11717).
cation-independent mannose-6-phosphate receptor (CIMPR) on fibroblast cells, sequence (P11717 41-2491): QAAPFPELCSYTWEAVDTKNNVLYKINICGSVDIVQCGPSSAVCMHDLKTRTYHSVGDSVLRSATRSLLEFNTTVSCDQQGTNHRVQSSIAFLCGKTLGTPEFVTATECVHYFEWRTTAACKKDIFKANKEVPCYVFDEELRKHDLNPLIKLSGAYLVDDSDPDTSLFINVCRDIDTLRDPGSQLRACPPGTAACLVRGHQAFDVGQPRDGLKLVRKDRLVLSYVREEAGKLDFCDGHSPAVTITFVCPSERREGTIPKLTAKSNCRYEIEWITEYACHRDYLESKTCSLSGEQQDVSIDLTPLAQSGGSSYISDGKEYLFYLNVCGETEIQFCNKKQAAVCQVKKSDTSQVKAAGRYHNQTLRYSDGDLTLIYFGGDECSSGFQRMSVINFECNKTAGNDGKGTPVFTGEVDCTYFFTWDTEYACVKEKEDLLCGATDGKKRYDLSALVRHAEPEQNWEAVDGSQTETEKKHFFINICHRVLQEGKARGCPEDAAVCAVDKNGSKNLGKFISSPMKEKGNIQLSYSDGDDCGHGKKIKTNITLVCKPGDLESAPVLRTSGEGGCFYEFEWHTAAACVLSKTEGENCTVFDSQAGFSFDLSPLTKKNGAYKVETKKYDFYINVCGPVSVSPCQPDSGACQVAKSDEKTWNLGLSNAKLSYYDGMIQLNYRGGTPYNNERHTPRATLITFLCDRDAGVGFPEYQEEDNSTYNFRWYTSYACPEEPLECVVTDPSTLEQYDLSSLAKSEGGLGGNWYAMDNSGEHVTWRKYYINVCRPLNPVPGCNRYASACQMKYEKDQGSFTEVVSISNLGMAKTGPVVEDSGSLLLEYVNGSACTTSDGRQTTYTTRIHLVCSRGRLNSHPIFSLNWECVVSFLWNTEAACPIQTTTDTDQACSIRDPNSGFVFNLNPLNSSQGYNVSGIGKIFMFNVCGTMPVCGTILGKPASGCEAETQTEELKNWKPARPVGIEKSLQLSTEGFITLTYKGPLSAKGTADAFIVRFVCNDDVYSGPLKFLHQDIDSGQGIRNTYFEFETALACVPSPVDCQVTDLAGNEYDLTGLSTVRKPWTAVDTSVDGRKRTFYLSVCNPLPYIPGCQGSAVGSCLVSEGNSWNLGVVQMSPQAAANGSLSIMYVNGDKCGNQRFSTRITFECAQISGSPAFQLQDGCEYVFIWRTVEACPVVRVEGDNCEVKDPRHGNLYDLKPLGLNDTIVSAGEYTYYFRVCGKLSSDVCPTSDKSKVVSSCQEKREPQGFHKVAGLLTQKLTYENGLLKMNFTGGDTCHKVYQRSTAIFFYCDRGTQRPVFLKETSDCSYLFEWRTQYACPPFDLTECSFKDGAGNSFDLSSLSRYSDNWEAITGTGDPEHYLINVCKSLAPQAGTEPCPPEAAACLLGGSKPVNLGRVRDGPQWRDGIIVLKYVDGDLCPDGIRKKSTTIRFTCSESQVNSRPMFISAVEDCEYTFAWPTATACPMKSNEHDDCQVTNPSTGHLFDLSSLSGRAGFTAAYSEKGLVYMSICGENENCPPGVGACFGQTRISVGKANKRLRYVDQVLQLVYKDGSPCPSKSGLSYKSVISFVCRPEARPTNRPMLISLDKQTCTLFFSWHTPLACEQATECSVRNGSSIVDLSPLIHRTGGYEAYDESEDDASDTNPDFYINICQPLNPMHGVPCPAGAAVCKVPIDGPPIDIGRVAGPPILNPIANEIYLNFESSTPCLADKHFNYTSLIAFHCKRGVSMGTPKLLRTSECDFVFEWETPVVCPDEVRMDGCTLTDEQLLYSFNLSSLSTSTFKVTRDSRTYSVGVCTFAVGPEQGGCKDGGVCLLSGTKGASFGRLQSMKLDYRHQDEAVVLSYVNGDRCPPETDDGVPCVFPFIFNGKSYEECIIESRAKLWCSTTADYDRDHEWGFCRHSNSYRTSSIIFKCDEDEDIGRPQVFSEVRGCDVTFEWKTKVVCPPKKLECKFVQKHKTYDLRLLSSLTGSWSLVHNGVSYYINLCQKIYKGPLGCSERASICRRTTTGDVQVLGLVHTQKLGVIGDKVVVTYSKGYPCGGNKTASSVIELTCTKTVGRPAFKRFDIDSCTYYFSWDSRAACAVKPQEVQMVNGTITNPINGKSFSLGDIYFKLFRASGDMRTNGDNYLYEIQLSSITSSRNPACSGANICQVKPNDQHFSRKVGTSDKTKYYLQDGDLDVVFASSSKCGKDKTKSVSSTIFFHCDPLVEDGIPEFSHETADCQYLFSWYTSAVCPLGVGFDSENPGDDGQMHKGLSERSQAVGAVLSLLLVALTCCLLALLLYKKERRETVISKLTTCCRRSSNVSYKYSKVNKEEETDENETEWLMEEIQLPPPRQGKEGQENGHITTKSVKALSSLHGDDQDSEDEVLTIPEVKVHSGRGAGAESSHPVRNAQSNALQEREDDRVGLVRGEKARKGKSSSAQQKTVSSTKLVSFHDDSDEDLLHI

Consider “ATB200 recombinant human acid α-glucosidase (rhGAA)”, for which the “stated: internalized (GAA activity inside CRL 2076 normal fibroblasts)” value is listed as “The curve labelled ATB200 rises steeply from 0 to about 33 nmol/mg protein/hr at about 25 nM. It then stays on a plateau of about 34 up to about 240 nM. The +M6P point (triangle) at about 240 nM lies at about 5, near the zero line”; the “stated: internalized (GAA activity inside PM25 Pompe fibroblasts)” value is “The curve labelled ATB200 rises steeply from 0 to about 30 at about 10 nM and about 36 at about 27 nM. The fitted plateau is about 41 nmol/mg protein/hr from about 80 nM. The last point, at about 240 nM, is about 45. The +M6P points at about 245 nM lie at about 1-4, near the zero line”.

Regarding “LUMIZYME® (alglucosidase alfa, conventional rhGAA product)”, the “stated: internalized (GAA activity inside CRL 2076 normal fibroblasts)” value was “The curve labelled Alglucosidase Alfa rises gradually from 0: about 8 at about 10 nM, about 16 at about 27 nM and about 23 at about 80 nM. It reaches about 35 nmol/mg protein/hr at about 240 nM, where it meets the ATB200 curve. The +M6P point (square) at about 240 nM lies at about 1, on the zero lin”; the “stated: internalized (GAA activity inside PM25 Pompe fibroblasts)” value was “The curve labelled Alglucosidase Alfa rises gradually from 0: about 7 at about 10 nM, about 13 at about 27 nM and about 26 at about 80 nM. It reaches about 37 nmol/mg protein/hr at about 240 nM and stays below the ATB200 curve throughout. The +M6P points at about 245 nM lie at about 1-4, near the ze”.
